Data taken from the nanobody polyreactivity screen of Harvey et al. (2022).

Assay: yeast display, Sf9 membrane polyspecificity reagent, FACS + sequencing; frameworks hold sequencing errors
Outline: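 Galactose induction of a Saccharomyces cerevisiae BJ5465 synthetic nanobody display library ran 36–48 hours. The cells were then stained for 1 hour at 4 °C with 10% biotinylated, detergent-solubilized Sf9 membrane reagent, pulled down on streptavidin microbeads and FACS-sorted into low and high (top ~1%) gates on expression and reagent-binding fluorescence. Labels for polyreactivity follow the gate of origin.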

| Sequence | polyreactivity (PSR sort gate) |
| --- | --- |
| QVQLVESGGGLVQAGGSLRLSCAASGRIFVSNTMGWYRQAPGKDWEWVAAITSVGSTNYADSVKGRFTISRDHAKNTVYLQMNSLKPEDTAVYYCNADNPYSDGADSLGNYWGQGTQVTVSS | low polyreactivity |
| QVQLVESGGGLVQAGGSLRLSCAASGSIFGGYAMGWYRQAPGKERELVAAISSGGSTYYADSVKGRFTISRDNAKNTVYLQMNSLKPEDTAVYYCNADRGNWWDYGRAYGYDYWGQGTQVTVSS | low polyreactivity |
| QVQLVESGGGLVQAGGSLRLSCAASGRIFGKYALGWYRQAPGKERELVAAISGRGGRTYYADSVKGRFTISRDNAKNTVYLQMNSLKPEDTAVYYFANDPRGSRYDYWGQGTQVTVSS | high polyreactivity |
| QVLLVESGGGLVQAGGSLRVSCAASGLIFSRYTMGGYRQAPGKERELVAAISKTGSSTYYAVSVKGRFTISRDNAKNTVYLQMKSLKPEDTAVYYCATTPTGRKKGDYWGQGTQVTVSS | high polyreactivity |
| QVQLVQSGGGIVQAGGSLRISCAASGFIFSSYDMGWYRQAPGKESELVAAISWTGGSTYYADSVKARFTISRDNAKNTVYLQMTSLKPEETAVYYCNAYPYFLVRIMDSWGQGTEVTVSS | high polyreactivity |
| QVQLVESGGGLVQAGGSLRLSCAASGSTYTRYAMGWYRQATGKDRELVAAISRSGGSTYYADSVKGRFTISRDNAKNTVYLQMNSLKPEDTAVYYCRKFTLTTVTNYWGQGTQVTVSS | high polyreactivity |
| QVQLVESGGGLVQAGGSLRLSCAASGSIFIYYAMGWYRQAPGKERELVADITFSAGSNTYYADSVKGRFTISRDNAKNTVYLQMNSLKPEDTAVYYCNADRGFIGSITEYDYWGQGTQVTVSS | low polyreactivity |
| QFQLVESGGGLVQAGGSLRLSCAASGRTFSWSAMGWYRQAPGKERELVAAISASGGRTYYADSVKGRFTISRDNANNSVYLQMNSLKPEDTAVYYCAKVVKKIEFDYWGQGTEVTVSS | high polyreactivity |
| QVQHVESGGGLVQAGGSLRLSCAASGSTSYPYAMGWYRQAPGKERELVATITSGGRTNYADSVKGRFTISRDNAKNTVYLQMNSLKPEDTAVYYCNARFYRWRSYGYDYWGQGTQVTVSS | high polyreactivity |
| QVQLVESGGGLVQAGGSLRLSCAASGYTFDGYAMGWYRPAPGKERELVAAINSGGGTYYADSVKGRFTISRDYAKNTVYLQMNSLIPDDTAVYYCNKKAYRKTGLDYWGQGTQVTVSS | low polyreactivity |
| QVQLVESGGGLVQAGGSLRLSCAASGFTFGSYAMGWYRQAPGTERELVADISRRGGRTYYADSVKGRFTISRDNAKNTVYLQMNSLKPEDTAVYYCNAVSYVYFYSSSYDYWGQGTQVTVSS | high polyreactivity |
| QVQLEETGGGLVQAGGSLLLSCEASGLTIHPYAMGWYRHAPGKERELVAAISSRGTSTYYADSVKWRFTISRDTAKNTVYLQMNSLKPEDTAVYYCAARHGPRAEAMYYWGQGPQVTVSS | high polyreactivity |
| QVQLVESGGGLVQAGGILRLSCAASGSTFAVNAMGWYRQAPGKERELVAAISTSGGSTYYADSVKGRFTISRDNAKNTVYLQMNSLKPEDTSVYDCAAGRVRRRVWYNYWGQGTQVTVSS | high polyreactivity |
| QVQLQESGGGLVQAGGSLRLSCAATGSIFYRLKMGWHRQAPGKERELVATIDPGSNTYYADSVKGSFTISRDNAKNTVYPQMYSLKPEDTAVYYCAVSAHWTIHYYYWGQGTQVTVSS | high polyreactivity |
| QVQLVESGGGLVQAGGSLRLSCAASGSTFSVYTMGWYRQAPGKERELVAAITRNGGSTSYADSVKGRFTISRDNAKNTVYLQMNSLKPEDTAVYYCAASYSYRGYLYGYWGQGTQVTVSS | high polyreactivity |
| QVQLVESGGGLVQAGGSLRLSCAASGRTFQDNAMGWYRQAPGKERELVAAMSWRGGSTNYADSVKGRFTISRDNAKNTVYLQMKSLKPEDTAVYYCYRDQRKYGKLDYWVQGTQVTVSS | low polyreactivity |
| QVQLVESGGGLVQAGGSLRLSCAASGIIFNTYAMGWYRPAPGKERELVAGIDYSGGGTSYADSVKGRFTISRDNAKNTVYLQMNSLKPEDTAVYYCAADAYSGAYFTYLGEIYDYWGQGTQVTVSS | low polyreactivity |
| QGHLEESGGGLVQAGGSLRISCAASGRILPYYVMGGYRPAPGKERELVATIYWSGGSTYYADSVKGRFTISRDNAKNNVNLQINSLKPEDTAVYYSNAAPSDDYDYWGQGTQVTVSS | low polyreactivity |
| QVQLQESGGGLVQAGGSLLSCAASGTISWVDEMGWYRQAPGNERELVAGIAGGGNTNYADSVKGRFTISRDNAKNTVYLQMNSLDTAVYYCAGWDYTGNVVTGDYWGQGTQVTVSS | high polyreactivity |
| QVQLVESGVGLVQAGGSLRLRCAASGITFGTYPMGWYRQAPGKEREFVAGYYADSVKGRFTISRDNAKNTVYLQMNSLKPEDTAVYYCAADYLYHDDVDYWGQGTQVTVSS | low polyreactivity |
| QVQLVESGGGIVQAGGSLRLSCAASGSTLRWNAMGWYRQAPGKERELVAAIRWSTGSTYYADSVKGRFTISRDNAKNTVYLQMNSLKPEDTAVYYCAARQGRARTPNDHNYWGQGTKVTVSS | high polyreactivity |
| QVQLEESGGGLVQAGGRLRLSCAASGFTFGRYTMGWYRHAPGKERELVAAITWTGGRTYYADSVKGRFTISRDNAKNTVYLQMNSLKPEDTAVYYCAADTTIIIAQSEDDLWGQGTQVTVSS | high polyreactivity |

| Sequence | polyreactivity (PSR sort gate) |
| --- | --- |
| QVQLVESGGGLVQAGGSLRLSCPASGSIFPYYAMGCYRQAPGKERELVAAISSGDITDYADSVKGRFTISRDNAKNTVYLQMNSLKPEDTAVYYCAAATLSLYWPYLFRGSDYDYWGQGSQVTVSS | low polyreactivity |
| QVQLVESGGGLVQAGGSLRLSGAASGSTFESYAMGWYRQAPGKERELVAAISWRVGSTYYADSVKGRFTISRDNAKNTVYLQMNSLKPEDTAVYDCASKGRYAHYGGYDYWGQGTQVTVSS | low polyreactivity |
| QVQLVESGGGLVQAGGSLRLSCAASGSICAYAMGWYRQAPGKERELVASISTSTDITYADSVKGRFTISRDNAKNTVYLQMNSLKPEDTAVYYCAATYWQWWGWYDYWGQGTQVTVSS | high polyreactivity |
| QVQLVDSGGGLVQAGGSLRLTCAASGFIFGYNTMGWYRQAPGKERELVAAIDSGGSTNYADSVKGRFTISRDNAKNTDYLQMNSLKPEDTAVYYCARESDWWREFPYDYWGQGTQVNVSS | low polyreactivity |
| QVQLVESGGGLVQAGGSLRLSCAASGRILRGYAMGWYRQAPGKERELVAAISWNGGSTYYADSVKGRFTISRDNAKNTVYLQMNSLKPEDTAVYYCAVVFNPHRYTGVLAGYDYWGQGTQVTVSS | high polyreactivity |
| QVQLVESGGGLVQAGGSLRLSCPTSGRNLRWYAMVWYIQAPGKERELVAAIKRSGDTTYYADSVKGRFTISRDNAKNTVYLQMNSLKPEHTAVYYCAARYTRKYDYWGQGTQVTVSS | high polyreactivity |
| QVQIVESGRGLVQAGGSLRLSCAASGSIFKKYAMGWYRQAPGKERELVAAISSRGGRTYYADSVKGRFTISRDNAKNTVYLQMNSLKPEDTAVYYCNTDISQPGAYDYWGQGTQVTVSS | high polyreactivity |
| QVQLVESGGGLVQAGGSLRLSCAASGITFVDYDMGWYRQAPGKERELVAAISWSGGSTYYADSVKGRFTISRDNAKNTVYLQMNSLKPEDTAVYYFAAEVIWWVREYYYWGQGTQVTVSS | low polyreactivity |
| QVQIVESGGRLVQAGGSLRLSCAASGLTFRRYAMGWYRQAPGKERELVASITYRGGSTYYADSVKARFTISRDNAKNTVYLQINSLKPEDTAVYHCNAKGQRNKRCRGYWGQGSQVTVSS | high polyreactivity |
| QVQLVESGGGLVQAGGSLRLSCAASGLIFLHNAMGWYRQAPGKERELVAAIRDGDSTNYADSVKGRFTISRDNAKNTVYLQMNSLKPEDTAVYYCAKDPTLVAYAPGRYDYWGQGTQVTVSS | low polyreactivity |
| QVQLVESGGGLVQAGGSLRLSCAASGSILYNNAMGWYRQAPGKERELVAAIDLSTGSTYYADSVKGRFTISRDNAKNTVYLQMNSLKPEDSSVYYCAAGKPLGSSTKYRPYDYWGQGTQVTVSS | low polyreactivity |
| QVQLVESGGGLVQAGGSLRLSCAASGLTFRLNAMGWYRHAPGKERELVAAITRGGRTNYADSVKGRFTISRDNAKNTVYLQMNSLKPEDTAVYYCAARYVERHTDYYYWGQGTQVTVSS | low polyreactivity |
| QVQLVESGGGLVQAGGSLRLSCAASGSTFPVYAMGWYRQAPGKERELVAAISLIGGSTYYADSVKGRFTISRDNAKNTVYLQMNSLNPEDTAVYYCNNAVISSPPAIDVLEMDYWGQGTQVTVSS | low polyreactivity |
| QVQLVESGGGLVQAGGSLRLSCAASGYIFYNAMGWYRQAPGKERELVAAISSSGGTTYYADSVKGRFTISRDNAKNTVFLQMNSLKPEDTAVYYCAATFRKRYPSRYDSWGQGTQVTVSS | low polyreactivity |
| QVQLVESGGGLVQAGGSLRLSCAASGSIFPYNVMGWYRQAPGKERELVAAITTGGRTNYADSVKGRFTISRDNAKNTVYLQMNSLKPEDTAVYYCAADRVVFGYWYYYWGQGTQVTVSS | high polyreactivity |
| QVQLVESGGGLVQAGGSLRLICAASGSNFWSYAMGWYRQAPGKERELVADITWSGGNTYADSVKGRFTISRDNAMNTVYLQMNSLKPEDTAVYYCAADPAHGTKWYVYPSHDDYWGQGTQVTVSS | low polyreactivity |
| QVQLVESGGGLVQAGGSLRLSCAASGSNFGPNAMGWYRQAPGKERELVAAIRSNGGRTYYADSVKGRFTISRDNAKNTVYLQMNRLKPEDTAVYYCAAPHYPYDTPYGYWGHGTQVTVSS | low polyreactivity |
| QVQLVESGAGLVQAGGILRLSCAASGRIIAYYAMGWYRQAPGKERELVAAINWSGGRTYYADSVKGRFTISRDNAKNTVYLQMNSLKPEDTAVYYCAARVSYGYDYWGQGTQVTVSS | high polyreactivity |
| QVQLVESGGGLVQAGGSLRLSCAASGRTFYIYARGWYRKAPGKERELVAAITYGGGRTFYADSVKGRFTISRDNAKYTVYLQMNSLKPEDNAVYYCAATVRGKRSTYDYWGQGTQVTVSS | high polyreactivity |
| QVQLVESGGGLVQAGGSLRLSCAASGSTFAQNTMGSYRQAPGKERELVATISDGGGSTYYADSVKGRFTISRDNAKNTVYLQMNSLKPEDTAVYYCNTDRFWPSYYWGQGTQVTVSS | low polyreactivity |
| QVQLVESGGGLVQAGGSLRLSCAASGSTFYRYAMGWYRQAPGKEREFVAAISRSGGSTYYADSVKGRFTISRDNAKNTVYLQMNSLNPEDTAVYYCNALNYRYRKYDYWGQGTQVTVSS | high polyreactivity |
